Data published in paper PMC11289387, “Structure of the MlaC-MlaD complex reveals molecular basis of periplasmic phospholipid transport” (Nature Communications, 2024).

Molecular target: the molecule itself
Test: cryo-EM structure; cardiolipin-loaded MlaD^32-183 with MlaC-apo, cross-linked with 0.1% glutaraldehyde, 0.8 mg/mL in 20 mM Tris pH 8.0, 150 mM NaCl; 1:6 map at 4.35 Å, 2:6 map at 4.38 Å

B1: periplasmic domain of E. coli MlaD (residues 32-183), MlaD^32-183 (domain or fragment, UniProt P64604 32-183, looked up)
chain: TSIRTEPTYTLYATFDNIGGLKARSPVSIGGVVVGRVADITLDPKTYLPRVTLEIEQRYNHIPDTSSLSIRTSGLLGEQYLALNVGFEDPELGTAILKDGDTIQDTKSAMVLEDLIGQFLYGSKGDDNKNSGDAPAAAPGNNETTEPVGTTK
notes: synthesised (Genscript), cloned in pET26b; No cleavage of the His tag is described; In the functional rows of the MlaC mutants the wild-type MlaD stood as part of MlaFEDB in acceptor proteoliposomes, not as this fragment; source: E. coli BL21(DE3), purified (Ni-NTA, Superdex 200); lipid removed with β-OG and loaded with cardiolipin where stated
stoichiometry N: 6
